The conditions of this series: Bacillus amyloliquefaciens, pH 7.4, Thermal, DSC, Sodium phosphate 50 mM, reversible: yes, whole UniProt chain shown.

B1: Barstar wild type, P11540 (protein)
chain: MKKAVINGEQIRSISDLHQTLKKELALPEYYGENLDALWDCLTGWVEYPLVLEWRQFEQSKQLTENGAESVLQVFREAKAEGCDITIILS
Regarding B1, the Tm (as a rule, the temperature at the midpoint of the melting transition) came out at 72.8 °C; the “heat capacity change of unfolding” value came to 1.27 kcal/mol/K; the “unfolding enthalpy (calorimetric)” value turned out to be 72.5 kcal/mol. Also, where the note is “25 °C”, the “heat capacity change of unfolding” value was 1.27 kcal/mol/K and the unfolding free energy was found to be 5.62 kcal/mol.

Values taken from FireProtDB (doi:10.1002/pro.5560061014).
